According to US12662524B2:
Like-named read-outs stand apart in the source and are kept apart here.

Legend:
[1] = biological target: AP C3-convertase (C3bBb) (Homo sapiens (Human)) (UniProt P01024)
[2] = biological target: AP C3-convertase (C3bBb) (Homo sapiens (Human)) (UniProt P01024); remark: listed apart in the source
[3] = substrate: CP C3-convertase (C4b2a) (Homo sapiens (Human)) (UniProt P0C0L4)

Binder | AP-DAA [1] | AP-DAA [2] | CP-DAA [3]
D2M2-4 (Tetra) (protein) CEVPTRLNSASLKQPYITQNYFPVGTVVEYECRPGYRRQPSLSPKLTCLQNLKWSTAVEFCKKKSCPNIRDPLNGQAVPANGTYEFGYQMHFICNEGYYLAGEEILYCELKGSVAIWSGKPPICEKVKCTPPPKIKNGKHTFSEVEVFEYLDAVTYSCDPAPGPDPFSLIGESTIYCGDNSVWSRAAPECKVVKCRFPVVENGKQISGFGKKFYYKATVMFECDKGFYLDGSDTIVCDSNSTWDPPVPKCLKVL | 12.5 fold |  | 
D2M2-4 (I134A) (protein) CEVPTRLNSASLKQPYITQNYFPVGTVVEYECRPGYRREPSLSPKLTCLQNLKWSTAVEFCKKKSCPYIRDPLNGQAVPANGTYEFGYQMHFICNEGYYLAGEEILYCELKGSVAIWSGKPPICEKVLCTPPPKIKNGKHTFSEVEVFEYLDAVTYSCDPAPGPDPFSLIGESTIYCGDNSVWSRAAPECKVVKCRFPVVENGKQISGFGKKFYYKATVMFECDKGFYLDGSDTIVCDSNSTWDPPVPKCLKVL |  | 6.7 fold | 2 fold
D2M2-4 (L161K) (protein) CEVPTRLNSASLKQPYITQNYFPVGTVVEYECRPGYRREPSLSPKLTCLQNLKWSTAVEFCKKKSCPYIRDPLNGQAVPANGTYEFGYQMHFICNEGYYLIGEEILYCELKGSVAIWSGKPPICEKVKCTPPPKIKNGKHTFSEVEVFEYLDAVTYSCDPAPGPDPFSLIGESTIYCGDNSVWSRAAPECKVVKCRFPVVENGKQISGFGKKFYYKATVMFECDKGFYLDGSDTIVCDSNSTWDPPVPKCLKVL |  | 3.4 fold | 2 fold
D2M2-4 (E136Q) (D2) (protein) CEVPTRLNSASLKQPYITQNYFPVGTVVEYECRPGYRRQPSLSPKLTCLQNLKWSTAVEFCKKKSCPYIRDPLNGQAVPANGTYEFGYQMHFICNEGYYLIGEEILYCELKGSVAIWSGKPPICEKVLCTPPPKIKNGKHTFSEVEVFEYLDAVTYSCDPAPGPDPFSLIGESTIYCGDNSVWSRAAPECKVVKCRFPVVENGKQISGFGKKFYYKATVMFECDKGFYLDGSDTIVCDSNSTWDPPVPKCLKVL |  | 5.6 fold | 
D2M2-4 (Y101N) (protein) CEVPTRLNSASLKQPYITQNYFPVGTVVEYECRPGYRREPSLSPKLTCLQNLKWSTAVEFCKKKSCPNIRDPLNGQAVPANGTYEFGYQMHFICNEGYYLIGEEILYCELKGSVAIWSGKPPICEKVLCTPPPKIKNGKHTFSEVEVFEYLDAVTYSCDPAPGPDPFSLIGESTIYCGDNSVWSRAAPECKVVKCRFPVVENGKQISGFGKKFYYKATVMFECDKGFYLDGSDTIVCDSNSTWDPPVPKCLKVL |  | 7.2 fold | 
